Reference: article PMC10914604, “FacZ is a GpsB-interacting protein that prevents aberrant division-site placement in Staphylococcus aureus” (Nature Microbiology, 2024)

Biological target: T1, N-terminal domain of GpsB (GpsB 1-75) (S. aureus, UniProt Q2FYI5 1-75)
T1 construct: GpsB, S. aureus, amino acids 1-75 (N-terminal domain); source: E. coli BL21 (DE3), purified (Ni-NTA, SUMO protease, second Ni-NTA); not shown: His, N-terminal, cleaved; SUMO, N-terminal, cleaved
T1 sequence (looked up): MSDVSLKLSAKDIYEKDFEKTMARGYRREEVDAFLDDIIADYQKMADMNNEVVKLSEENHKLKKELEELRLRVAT
Test: SEC; GpsB(1-75) at 90 uM mixed with SUMO-FacZ at 30 uM in 500 ul, salt 150-200 mM; Superdex75 Increase 10/300 in 20 mM HEPES pH 7.6, 100 mM NaCl, 1 mM DTT, 0.5 ml/min
Details: both partners purified

B1: His-SUMO fusion bearing a 3x concatenation of residues 127-146 of FacZ (native motif NRHYRR) (domain or fragment)
chain: EIADKWQNRHYRRGSANYKAGSAGEIADKWQNRHYRRGSANYKAGSAGEIADKWQNRHYRRGSANYKA
notes: FacZ (factor preventing extra Z-rings), S. aureus, residues 127-146, first of three repeats; linker; FacZ, S. aureus, residues 127-146, second repeat; FacZ, S. aureus, residues 127-146, third repeat; The methods call the stretch 127-145, the results and legends 127-146; also called SUMO-3x-FacZ (127-146); His-SUMO-FacZ_(127-145); source: E. coli BL21 (DE3), purified (Ni-NTA); not shown: His, …
binding result: binds
